IntAct's records for PubMed 18423202

B1: Regulator of nonsense transcripts 1 (Homo sapiens), Q92900-2 (parent)
chain: MSVEAYGPSSQTLTFLDTEEAELLGADTQGSEFEFTDFTLPSQTQTPPGGPGGPGGGGAGGPGGAGAGAAAGQLDAQVGPEGILQNGAVDDSVAKTSQLLAELNFEEDEEDTYYTKDLPIHACSYCGIHDPACVVYCNTSKKWFCNGRGNTSGSHIVNHLVRAKCKEVTLHKDGPLGETVLECYNCGCRNVFLLGFIPAKADSVVVLLCRQPCASQSSLKDINWDSSQWQPLIQDRCFLSWLVKIPSEQEQLRARQITAQQINKLEELWKENPSATLEDLEKPGVDEEPQHVLLRYEDAYQYQNIFGPLVKLEADYDKKLKESQTQDNITVRWDLGLNKKRIAYFTLPKTDSDMRLMQGDEICLRYKGDLAPLWKGIGHVIKVPDNYGDEIAIELRSSVGAPVEVTHNFQVDFVWKSTSFDRMQSALKTFAVDETSVSGYIYHKLLGHEVEDVIIKCQLPKRFTAQGLPDLNHSQVYAVKTVLQRPLSLIQGPPGTGKTVTSATIVYHLARQGNGPVLVCAPSNIAVDQLTEKIHQTGLKVVRLCAKSREAIDSPVSFLALHNQIRNMDSMPELQKLQQLKDETGELSSADEKRYRALKRTAERELLMNADVICCTCVGAGDPRLAKMQFRSILIDESTQATEPECMVPVVLGAKQLILVGDHCQLGPVVMCKKAAKAGLSQSLFERLVVLGIRPIRLQVQYRMHPALSAFPSNIFYEGSLQNGVTAADRVKKGFDFQWPQPDKPMFFYVTQGQEEIASSGTSYLNRTEAANVEKITTKLLKAGAKPDQIGIITPYEGQRSYLVQYMQFSGSLHTKLYQEVEIASVDAFQGREKDFIILSCVRANEHQGIGFLNDPRRLNVALTRARYGVIIVGNPKALSKQPLWNHLLNYYKEQKVLVEGPLNNLRESLMQFSKPRKLVNTINPGARFMTTAMYDAREAIIPGSVYDRSSQGRPSSMYFQTHDQIGMISAGPSHVAAMNIPIPFNLVMPPMPPPGYFGQANGPAAGRGTPKGKTGRGGRQKNRFGLPGPSQTNLPNSQASQDVASQPFSQGALTQGYISMSQPSQMSQPGLSQPELSQDSYLGDEFKSQIDVALSQDSTYQGERAYQHGGVTGLSQY

Variants of: B1
Conditions: with eif3a_human EIF3A

effect of a mutation on the interaction	Variant
increasing interaction	G495R;G497E

Variants of: B1
Conditions: with eif3a_human EIF3A
Remark: another data set of the same source

effect of a mutation on the interaction	Variant
increasing interaction	G495R;G497E
